Positions count from the first letter of the chain named.
Key:
[1] = tested on: T1, hPER2 fragment, amino acids 474 to 815, mutant S662G (662G), 6-myc-tagged
T1 sequence: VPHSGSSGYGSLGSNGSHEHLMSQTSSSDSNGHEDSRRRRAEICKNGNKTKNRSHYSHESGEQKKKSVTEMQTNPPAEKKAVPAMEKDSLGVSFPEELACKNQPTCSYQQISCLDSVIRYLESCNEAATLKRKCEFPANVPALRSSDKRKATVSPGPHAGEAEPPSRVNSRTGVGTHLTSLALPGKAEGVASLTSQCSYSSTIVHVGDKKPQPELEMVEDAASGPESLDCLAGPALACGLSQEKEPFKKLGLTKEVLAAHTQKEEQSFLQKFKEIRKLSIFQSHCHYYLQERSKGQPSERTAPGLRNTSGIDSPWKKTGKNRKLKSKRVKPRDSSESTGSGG

[2] = biological target: mPER2 fragment, amino acids 472 to 804, wild-type, 6-myc-tagged (UniProt O54943)
[3] = tested on: T2, hPER2 fragment, amino acids 474 to 815, S662D, 6-myc-tagged
T2 sequence: T1 sequence with G189D

[4] = tested on: T3, hPER2 fragment, amino acids 474 to 815, S662E, 6-myc-tagged
T3 sequence: T1 sequence with G189E

[5] = tested on: hPER2 peptides in the region of serine 662 with a negative charge at position 662 (covalently linked phosphate or aspartate)
[6] = tested on: T4, hPER2 fragment, amino acids 474 to 815, wild-type (662S), 6-myc-tagged
T4 sequence: T1 sequence with G189S

[7] = biological target: mPER2 fragment, amino acids 472 to 804, serine 659 substituted by glycine, 6-myc-tagged (UniProt O54943)

Sequence of casein kinase Iε (CKIε) (P49674 whole entry, the tested form may be a part): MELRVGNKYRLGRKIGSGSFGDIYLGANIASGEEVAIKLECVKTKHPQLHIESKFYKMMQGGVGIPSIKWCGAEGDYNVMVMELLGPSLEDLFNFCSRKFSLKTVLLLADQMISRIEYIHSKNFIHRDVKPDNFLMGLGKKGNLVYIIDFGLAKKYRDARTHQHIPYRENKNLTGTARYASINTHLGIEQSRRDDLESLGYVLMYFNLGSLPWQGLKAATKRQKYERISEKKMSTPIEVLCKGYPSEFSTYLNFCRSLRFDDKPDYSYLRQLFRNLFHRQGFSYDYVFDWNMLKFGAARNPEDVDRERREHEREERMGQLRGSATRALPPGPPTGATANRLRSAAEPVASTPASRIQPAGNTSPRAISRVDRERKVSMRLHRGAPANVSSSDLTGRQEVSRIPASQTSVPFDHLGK

casein kinase Iε (CKIε)
electrophoretic mobility shift (phosphorylation) at higher CKIε, 6.5 ng/µl [1]: mobility shifts were observed for both the wild type and mutant hPER2 fragments | electrophoretic mobility shift (phosphorylation) at low CKIε, 0.25 ng/µl [1]: an electrophoretic mobility shift was observed with the wild-type (662S) but not with the mutant (662G) fragment | electrophoretic mobility shift (phosphorylation) at low CKIε [2]: A similar result was obtained with wild-type and mutant mPER2 fragments (data not shown) | phosphorylation (mobility shift) [3]: Phosphorylation was restored in both the S662D and S662E mutants, with a higher phosphorylation rate observed with the S662D mutant | phosphorylation (mobility shift) [4]: Phosphorylation was restored in both the S662D and S662E mutants, with a higher phosphorylation rate observed with the S662D mutant | phosphorylation stoichiometry (biochemical phosphorylation assay and mass spectrometry) [5]: phosphorylation of an additional four moles per mole of substrate when there is a negative charge at serine 662 | electrophoretic mobility shift (phosphorylation) at higher CKIε, 6.5 ng/µl [6]: mobility shifts were observed for both the wild type and mutant hPER2 fragments | electrophoretic mobility shift (phosphorylation) at low CKIε, 0.25 ng/µl [6]: an electrophoretic mobility shift was observed with the wild-type (662S) but not with the mutant (662G) fragment | electrophoretic mobility shift (phosphorylation) at low CKIε [7]: A similar result was obtained with wild-type and mutant mPER2 fragments (data not shown)
